Test results from patent publication US8497072.
Positions count from the first letter of the chain named. Each block holds one binder with its values, some of them ahead of it.

Target: soluble amyloid precursor protein alpha (UniProt P05067)
Experiment: sandwich ELISA, EC50 of this antigen divided by EC50 of Aβ(1-42) globulomer

- selectivity factor (EC50 ratio against Aβ(1-42) globulomer): > 100 fold
B1: monoclonal antibody 8C5 (antibody, V domains shown)
VH: EVQLVESGGGLVQPGGSLKLSCTASGFTFSSYGMSWVRQTPDKRLELVASIKNNGGSTYYPDSLKGRFTISRDNAKNTLYLQMSSLKSEDTAMYYCASGDYWGQGTTLTVSS
VL: DVVMTQTPLSLPVSLGDQASISCRSSQSLVHSNGDTFLHWYLQKPGQSPKLLIYKVSNRFSGVPDRFSGSGSGTDFTLKISRVEAEDLGIYFCSQSIHVPWTFGGGTKLEIKR

- selectivity factor (EC50 ratio against Aβ(1-42) globulomer): > 100 fold
B2: monoclonal antibody 8F5 (antibody, V domains shown)
VH: B1 VH with T23A, K52N, N53S, L64V, T106S
VL: B1 VL with H31Y, F37Y, I90V, I97T
